Data taken from the supplement of paper PMC9170038.

System: MS2 coat protein
Assay: apparent KD of MS2 coat protein; designed switch direction (-1 OFF switch, 1 ON switch): -1; higher = weaker reporter binding
How it was run: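 SNAP-549-labelled MS2 coat protein was titrated, doubling from 0.7 or 1.5 nM to 3 µM, over designed RNA switches transcribed on Illumina chips by stalled E. coli RNA polymerase. Runs were done without input, with 200 uM small-molecule ligand, or with an oligonucleotide input. Apparent KD is the per-design median over clusters of curve-fitted normalised fluorescence.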

[1] = Eterna round: R95, input ligand: FMN 200 uM
[2] = Eterna round: R95, input ligand: microRNA oligo, concentration not stated
[3] = Eterna round: R95, input ligand: none
[4] = input ligand: microRNA oligo, concentration not stated

Sequence	apparent KD of MS2 coat protein [1] [nM]	apparent KD of MS2 coat protein [2] [nM]	apparent KD of MS2 coat protein [3] [nM]	apparent KD of MS2 coat protein (input ligand: FMN 200 uM) [nM]	apparent KD of MS2 coat protein (input ligand: none) [nM]	apparent KD of MS2 coat protein [4] [nM]
UCAUACGGUGAGGAUAUCUCCACUAAAGUGUGAAGAGAAGGCGCUACAUGAGGAUCACCCAUGUUUAUGGGCAG [Ex-6 Malc#14] (puzzle: Exclusion 6)	27	56.5	116	–	–	–
UCAUGGGAGGCAGCUGCCCACAUGAGGAUCACCCAUGUUUUAGACAAACGGGUACAAGCUUUUAAUGCUCUUCUUUG [Eternabot (L2) Solution 49] (Eterna round: R97, puzzle: Sensor, turn-off variant 1)	–	–	–	587	248	–
UCAUGUUAGCAGGAUAUGCUAUUUAUUUUUUAUGCAGAAGGGCUUACAUGAGGAUCACCCAUGUAUUAAGUUUU [JR_E6_Sub074] (puzzle: Exclusion 6)	–	115	–	–	–	–
UCAUGUUAGCAGGAUAUGCUAUUUAUUUUUUAUGCAGAAGGGCUUACAUGAGGAUCACCCAUGUGUUAGGUUUU [JR_E6_Sub073] (Eterna round: R96, puzzle: Exclusion 6)	–	–	–	34.8	70.6	41.5
UCAUGUUAGCAGGAUAUGCUAUUUAUUUUUUAUGCAGAAGGGCUUACAUGAGGAUCACCCAUGUGUUAGGUUUU [JR_E6_Sub073] (puzzle: Exclusion 6)	–	29.7	–	–	–	–
UCAUGUUUAGAGGAUAUGAUUACUCUAGAGUGAUCAGAAGGCUAGACAUGAGGAUCACCCAUGUCACAACAUGA [Exclusion 6 - B - 16:c] (puzzle: Exclusion 6)	73.6	44.5	128	–	–	–
UCAUGUUUAGAGGAUAUGAUUACUUUAGAGUAAUCAGAAGGCUAGACAUGAGGAUCACCCAUGUCAUAACAUGA [Exclusion 6 - B - 15:a] (puzzle: Exclusion 6)	38.3	62	54.3	–	–	–
UCCAGCAUACGGAGAUCCAACAUGAGGAUCACCCAUGUCUGGAAAGCUUUUUGCUUGUCUUAUCCUCCUCUGUGUGC [Design #6] (Eterna round: R97, puzzle: Sensor, turn-off variant 1)	–	–	–	22.5	22.9	–
UCCAGGCGAGGAUAUACAAAGAUUUUUUCGUUUAGUCUCGAACAUGAGGAUCACCCAUGUAGAAGGUGCUUCAC [JR_Ex2_Sub011] (Eterna round: R97, puzzle: Exclusion 2)	–	–	–	46.6	48.3	–
UCCCAACAUGAGGAUCACCCAUGUAAGGAUAUCCAUGGACGACGGCAUUGUUCCCGGCGGAGAAGGUGCAUGGU [EX1 B.21] (Eterna round: R97, puzzle: Exclusion 1)	–	–	–	46.4	27.6	–
UCCGAACAUGAGGAUCACCCAUGUCAGGAUAUUCGGUUACGUGACAAAUAGUACUAACGAAGAAGGGACAUGCU [Eternabot (L2) Solution 26] (Eterna round: R97, puzzle: Exclusion 1)	–	–	–	79.1	27.7	–
UCCUCACAUGAGGAUCACCCAUGUCAGGAUAUGCGCGGCCAAAAGGGCUGCUAAGGCAGCAGAAGGGACGUGAA [Rarequtece] (puzzle: Exclusion 1)	18.7	14.1	15	–	–	–
UCCUCACUUGAGGAUCACCCAAGUCAGGAUAUUCACUGAACUGCGUAACAGUUCGGCCGAAGAAGGGAUUCGGG [Veatorma] (Eterna round: R97, puzzle: Exclusion 1)	–	–	–	259	75	–
UCGAUGCGAGGAUAUACUAAGGCAACUACUGCAGCUCAAAAACAUGAGGAUCACCCAUGUAGAAGGCGCAUAUA [JR_Exc002_Sub304] (Eterna round: R96, puzzle: Exclusion 2)	–	–	–	–	–	12.9
UCGAUGUGAGGAUAUAUAUGCAGUAGUCCUUGUGUUUUAUAACUUGAGGAUCACCCAAGUAGAAGGCGCGACGU [JR_Ex2_Sub059] (Eterna round: R97, puzzle: Exclusion 2)	–	–	–	37	33.5	–
UCGCUGCGAGGAUAUACAUGAGGAUCACCCAUGUACGGGUCCGGGUCUUCGUCCAUUAGUAGAAGGCGCAGUGA [JL Laongeedie mod 2] (puzzle: Exclusion 3)	–	47.7	–	–	–	–
UCGGCGCGAGGAUAUACGUUUGCUUUUUAGGGUCGUGGCGUACAUGAGGAUCACCCAUGUAGAAGGCGCGCCGC [Apr-15 SS2-29] (puzzle: Exclusion 2)	–	14.6	–	–	–	–
UCGGCGCGAGGAUAUACGUUUGCUUUUUUUUGUUUUUGUGUACAUGAGGAUCACCCAUGUAGAAGGCGCGCCGC [Apr-15 SS2-21] (puzzle: Exclusion 2)	–	22	–	–	–	–

Sequence	apparent KD of MS2 coat protein [1] [nM]	apparent KD of MS2 coat protein [2] [nM]	apparent KD of MS2 coat protein [3] [nM]	apparent KD of MS2 coat protein (input ligand: FMN 200 uM) [nM]	apparent KD of MS2 coat protein (input ligand: none) [nM]	apparent KD of MS2 coat protein [4] [nM]
UCGUGGUAACUCAGCAGUUUCCUGAGCGGAGGAACUUUGACAUGAGGAUCACCCAUGUUGCUUUUUGCUCAUCUUAA [JR_SV3TOV2_Sub042] (puzzle: Sensor v3, turn-off variant 2)	20.9	40.3	16.1	–	–	–
UCGUUCCGUGUAGGAUAUUGGCCUCCCUCGGGCCGAGAAGGACAUGAGGAUCACCCAUGUAUGUUAUUAUCGCGCGUGGCGCAU [Design 89] (Eterna round: R96, puzzle: Exclusion NG 1)	–	–	–	113	20.8	14.5
UCGUUCCGUGUAGGAUAUUGGCCUUCCUUGGGCCGAGAAGGACAUGAGGAUCACCCAUGUAUGUUAUUAUCGCGCGUGGCGCAU [Design 87] (Eterna round: R96, puzzle: Exclusion NG 1)	–	–	–	97.1	18.6	13.3
UCGUUGUAAAUCAGGUGAUGUCUGUUAGGAUGGACUUUGACAUGAGGAUCACCCAUGUUGCUUUUUGCCCGUCUUAA [JR_SV3TOV2_Sub045] (puzzle: Sensor v3, turn-off variant 2)	33.6	68.5	38.4	–	–	–
UCUCGCGGGCAAGGAUAUCCUACAUUGUUCUGGCCCGGGCAUGUUACAUGAGGAUCACCCAUGUGGGAGAAGGUGCGCCAGGGC [Design 35] (Eterna round: R96, puzzle: Exclusion NG 2)	–	–	–	29.9	30.3	18.9
UCUGGUCGAGGAUAUACAUGAGGAUCACCCAUGUUGAUCAACUGCCGAUAGGCAGAAUGUAGAAGGCGACCAGA [E3/7-A3] (Eterna round: R97, puzzle: Exclusion 3)	–	–	–	176	865	–
UCUGUUGAAGGAUAUGCGUAACGAGUUACGGCUCAAGGUCUACAUGAGGAUCACCCAUGUAGAAGGUCAUCAGA [EX2 #71] (Eterna round: R97, puzzle: Exclusion 2)	–	–	–	19.5	17.4	–
UCUUAUUGAGGAUAUACAUUAAAAUACAUGAGGAUCACCCAUGUUCUUCAAUGUAUAUAUGUAGAAGGCAGAAGAU [Mat - Exclusion 5 - JL Mod - D26] (Eterna round: R97, puzzle: Exclusion 5)	–	–	–	155	36.9	–
UCUUAUUGCAAGGAUAUGCAAAUUAUUUUUUAAGCAGAAGGUGCAACAUGAGGAUCACCCAUGUUUCCGGGCAA [JR_E6_Sub038] (puzzle: Exclusion 6)	–	16.8	–	–	–	–
UGAAAACAUGAGGAUCACCCAUGUAAGGAUAUGCAAAAGGAUAUAGAAGGAAAAAAAAGCAGAAGGUACAAAGG [salish99-ex1_r3_095] (puzzle: Exclusion 1)	99.4	86.6	60.3	–	–	–
UGAACAUGUGUCAGGAUAUCUGAUGUAAGUUAAUCGGAGAAGGGACAUGAGGAUCACCCAUGUCGUCGAAAGAU [Eternabot (L2) Solution 40] (Eterna round: R97, puzzle: Brourd's mod of Exclusion 4)	–	–	–	19.3	15.5	–
UGAACCCAUGUUAGGAUAUCAGGCCGAGGAAGUUCUGAGAAGGGACAUGAGGAUCACCCAUGUAUAAAAGAAAC [Veontiinge] (Eterna round: R96, puzzle: Brourd's mod of Exclusion 4)	–	–	–	44.1	51.7	44.6
UGAACCCAUGUUAGGAUAUCAGGCCGAGGAAGUUCUGAGAAGGGACAUGAGGAUCACCCAUGUAUAAAAGAAAC [Veontiinge] (puzzle: Brourd's mod of Exclusion 4)	–	63.6	–	–	–	–
UGAAGUAGAAACCGAUCCUACAUGAGGAUCACCCAUGUAGCAAGACGUGCACGCGAAGCUCGUCAGACUACCAGAAG [salish99_TOv1_r3_002] (puzzle: Sensor v3, turn-off variant 1)	170	167	366	–	–	–
UGAAGUAGAGGAUAUACGUGGAAAUAGAUUCAUGUUAAUCUACAUGAGGAUCACCCAUGUAGAAGGCUAUAGAU [JR_Ex2_Sub074] (Eterna round: R97, puzzle: Exclusion 2)	–	–	–	69.3	24.3	–
UGACGAGUAGGAUAUUGGACUUGCGACAUGAGGAUCACCCAUGUGACGUCAACGUGGCACCAAGAAGGGCUACGUC [Gelareusdi] (Eterna round: R96, puzzle: Exclusion 5)	–	–	–	53.4	63.3	49.3
UGACGAGUAGGAUAUUGGACUUGCGACAUGAGGAUCACCCAUGUGACGUCAACGUGGCACCAAGAAGGGCUACGUC [Gelareusdi] (puzzle: Exclusion 5)	–	47.7	–	–	–	–
UGAGUGCUGCGAGGAUAUACAUGAGGAUCACCCAUGUAAUCGUCUGAGGCAAAGCCUCAGACGAAGUAGAAGGCGCAGUACUCU [Mat - Exclusion NG 2 - Mod of JL - D26] (Eterna round: R96, puzzle: Exclusion NG 2)	–	–	–	15.5	17.2	11.5
